The text below walks through data of paper PMC5506036, “SmMYB36, a Novel R2R3-MYB Transcription Factor, Enhances Tanshinone Accumulation and Decreases Phenolic Acid Content in Salvia miltiorrhiza Hairy Roots”.

To fix the notation:
T1: SmMYB36 (Salvia miltiorrhiza, UniProt A0A059PRJ2 1-160)
T1 sequence: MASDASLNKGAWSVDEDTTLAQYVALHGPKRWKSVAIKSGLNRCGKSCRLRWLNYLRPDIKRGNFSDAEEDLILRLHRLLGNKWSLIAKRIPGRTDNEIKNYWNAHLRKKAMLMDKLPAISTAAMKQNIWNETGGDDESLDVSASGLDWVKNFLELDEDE

B1: MCT-MBS3-2 (dsDNA)
DNA 1: AACTAGATGAATTAACTGGTAGCAATTACC
DNA 2: GGTAATTGCTACCAGTTAATTCATCTAGTT
B2: DXR-MRE (dsDNA)
DNA 1: CCCCTTTTACAAAACCTAATTTCCCCCCAT
DNA 2: ATGGGGGGAAATTAGGTTTTGTAAAAGGGG
B3: HPPR-MRE-1 (dsDNA)
DNA 1: TTTTGTGGGACAAACCTAAAAAGAAACTGAA
DNA 2: TTCAGTTTCTTTTTAGGTTTGTCCCACAAAA
B4: MCT-MBS2-2 (dsDNA)
DNA 1: AAAACAGGCATCCGGTCAGTAAGTCCGCAT
DNA 2: ATGCGGACTTACTGACCGGATGCCTGTTTT
B5: HMGS1-MBS3 (dsDNA)
DNA 1: GTGTGTGCTGTTTAACTGATCCGCTATTTC
DNA 2: GAAATAGCGGATCAGTTAAACAGCACACAC
B6: MCT-MBS3-1 (dsDNA)
DNA 1: TATCATCTTCGGTAACTGATACTCAAGGAT
DNA 2: ATCCTTGAGTATCAGTTACCGAAGATGATA
B7: HPPR-MRE-2 (dsDNA)
DNA 1: AATGATTGATTTAACCTAATCATTGTGAAACC
DNA 2: GGTTTCACAATGATTAGGTTAAATCAATCATT
B8: MBSI-2 core (dsDNA)
DNA 1: AAAAAACGGTTA
DNA 2: TAACCGTTTTTT
B9: MBSII core (dsDNA)
DNA 1: AAAAGTTAGTTA
DNA 2: TAACTAACTTTT
B10: GGPPS1-MBS2 (dsDNA)
DNA 1: TTAAAATCGTTACGGTCATACCACGGAAAC
DNA 2: GTTTCCGTGGTATGACCGTAACGATTTTAA
B11: C4H1-MBS1 (dsDNA)
DNA 1: TCTTTAAAACTCCAACTGATATGATGTTCG
DNA 2: CGAACATCATATCAGTTGGAGTTTTAAAGA
B12: IPPI-MBS1 (dsDNA)
DNA 1: CCGCCGCCGCCACAACTGTAATGGTGCTTT
DNA 2: AAAGCACCATTACAGTTGTGGCGGCGGCGG
B13: C4H1-MBS3 (dsDNA)
DNA 1: GTTTAAAAGACATAACTGAGTTATCGAACA
DNA 2: TGTTCGATAACTCAGTTATGTCTTTTAAAC
B14: GGPPS1-MRE (dsDNA)
DNA 1: TTTTTCGATAGTAACCTAATTTTCTGTAGTG
DNA 2: CACTACAGAAAATTAGGTTACTATCGAAAAA
B15: MCT-MBS2-1 (dsDNA)
DNA 1: AGGAAACCCTCACGGTCACCTTAACATTCA
DNA 2: TGAATGTTAAGGTGACCGTGAGGGTTTCCT
B16: MBSI-1 core (dsDNA)
DNA 1: AAAAAACCGTTA
DNA 2: TAACGGTTTTTT
B17: MBS1 core (dsDNA)
DNA 1: CAACTG
DNA 2: CAGTTG
B18: 4CL2-MRE (dsDNA)
DNA 1: TTTGTAGAGTTGAACCTAAAGATGATGGGTG
DNA 2: CACCCATCATCTTTAGGTTCAACTCTACAAA

The series deals with T1, SmMYB36. Description: EMSA; Invitrogen EMSA kit, probe:protein mass ratio 1:15, 10 µL; protein eluted in 50 mM NaH2PO4, 300 mM NaCl, 250 mM imidazole pH 8.0; binding buffer and temperature not given. Conditions: protein: recombinant; tags: His (pET32a fusion); blunt. Background: Mobility shift assays separate free from complexed probe on a gel.
B1: the binding result was “binds”.

Regarding B2, the binding result is “binds”.

In the case of B3, the binding result is reported as “binds”.

As for B4, the binding result is reported as “binds”.

For B5, the binding result was “binds”.

Consider B6, for which the binding result is listed as “binds”.

On to B7, for which the binding result is “binds”.

With B8, the binding result is on record as “binds”.

B9: the binding result was “binds”.

B10: the binding result was “binds”.

As to B11, the binding result is “binds”.

For B12, the binding result is “binds”.

B13: the binding result is reported as “binds”.

In the case of B14, the binding result is listed as “binds”.

For the molecule B15, the binding result is “binds”.

For B16, the binding result was “binds”.

For the molecule B17, the binding result is “binds”.

For the molecule B18, the binding result is listed as “binds”.
